Legend:
[1] = tested on: human dermal papilla cells; assay: Dermal papilla cell proliferating effect, CCK-8 (Example 13); assay type: cell-based; settings: proteins 25 ng/ml, minoxidil 10 μM; TGF-β2 (2 ng/ml) present or absent
Experimental: Human dermal papilla cells were cultured in a 37° C., 5% CO2 incubator using a dermal papilla cell proliferation medium (Promocell). When the cells were about 90% full, the cells were detached with a 0.05% Trypsin/EDTA solution and then centrifuged at 1000 rpm for 3 minutes to recover only the cells. The cells were dispensed into a 96-well plate at 2.0×10^3 per well, cultured for 24 hours, and HAPLN1, CX3CL1 and CDON were diluted to have a final concentration of 25 ng/ml in serum-free medium. After removing the existing culture medium, 200 μl of diluted HAPLN1, CX3CL1, and CDON were dispensed into each well and cultured for 1 hour. To reduce an experimental variation, 3 wells per group were treated (triplication). In addition, minoxidil, which is known to proliferate dermal papilla cells, was treated with 10 μM and set as a positive control.
(§1) In the same manner as described above, HAPLN1 (25 ng/ml), CX3CL1 (25 ng/ml), CDON (25 ng/ml) or minoxidil (10 μM), and human recombinant TGF-β2 were diluted to a final concentration of 2 ng/ml, and the medium of the group containing TGF-β2 was replaced by 200 μl. To reduce an experimental variation, 3 wells per group were treated (triplication).
(§2) After incubation for 23 hours, the plate was removed from the incubator, and 20 μl of CCK-8 (WST-8) solution was added to the plate containing the medium and the reagent per 200 μl of the medium for the reaction to be carried out at 37° C. for 1 hour.

[2] = tested on: human hair germinal matrix cells; assay: Hair germinal matrix cell proliferating effect, CCK-8 (Example 13); assay type: cell-based; settings: 25 ng/ml; TGF-β2 condition not given
Experimental: as §1, §2
Human hair germinal matrix cells were released in a poly-D-lysine-coated flask using a mesenchymal stem cell medium (MSCM), and cultured in a 5% CO2 incubator at 37° C. When the cells were about 90% full, the cells were detached with a 0.05% Trypsin/EDTA solution, and then only the cells were recovered by centrifugation at 1000 rpm for 3 minutes. The recovered cells were dispensed into 96-well poly-D-lysine coated plates (BD bioscience) at 2.0×10^3 per well and cultured for 24 hours, and the final concentrations of HAPLN1, CX3CL1 and CDON were diluted to 25 ng/ml in a serum-free medium. The subsequent process was performed in the same manner as the experiment for the dermal papilla cells to measure the absorbance, and the results are shown in FIG. 22.

| Molecule | dermal papilla cell proliferation (absorbance at 450 nm) [1] | hair germinal matrix cell proliferation (absorbance at 450 nm) [2] |
| --- | --- | --- |
| CDON: protein expressed by a cell adhesion gene present in dermal papilla cells (protein, UniProt Q4KMG0 26-1287, looked up) Cell adhesion …: DLAPYFTSEPLSAVQKLGGPVVLHCSAQPVTTRISWLHNGKTLDGNLEHVKIHQGTLTILSLNSSLLGYYQCLANNSIGAIVSGPATVSVAVLGDFGSSTKHVITAEEKSAGFIGCRVPESNPKAEVRYKIRGKWLEHSTENYLILPSGNLQILNVSLEDKGSYKCAAYNPVTHQLKVEPIGRKLLVSRPSSDDVHILHPTHSQALAVLSRSPVTLECVVSGVPAPQVYWLKDGQDIAPGSNWRRLYSHLATDSVDPADSGNYSCMAGNKSGDVKYVTYMVNVLEHASISKGLQDQIVSLGATVHFTCDVHGNPAPNCTWFHNAQPIHPSARHLTAGNGLKISGVTVEDVGMYQCVADNGIGFMHSTGRLEIENDGGFKPVIITAPVSAKVADGDFVTLSCNASGLPVPVIRWYDSHGLITSHPSQVLRSKSRKSQLSRPEGLNLEPVYFVLSQAGASSLHIQAVTQEHAGKYICEAANEHGTTQAEASLMVVPFETNTKAETVTLPDAAQNDDRSKRDGSETGLLSSFPVKVHPSAVESAPEKNASGISVPDAPIILSPPQTHTPDTYNLVWRAGKDGGLPINAYFVKYRKLDDGVGMLGSWHTVRVPGSENELHLAELEPSSLYEVLMVARSAAGEGQPAMLTFRTSKEKTASSKNTQASSPPVGIPKYPVVSEAANNNFGVVLTDSSRHSGVPEAPDRPTISTASETSVYVTWIPRANGGSPITAFKVEYKRMRTSNWLVAAEDIPPSKLSVEVRSLEPGSTYKFRVIAINHYGESFRSSASRPYQVVGFPNRFSSRPITGPHIAYTEAVSDTQIMLKWTYIPSSNNNTPIQGFYIYYRPTDSDNDSDYKRDVVEGSKQWHMIGHLQPETSYDIKMQCFNEGGESEFSNVMICETKVKRVPGASEYPVKDLSTPPNSLGSGGNVGPATSPARSSDMLYLIVGCVLGVMVLILMVFIAMCLWKNRQQNTIQKYDPPGYLYQGSDMNGQMVDYTTLSGASQINGNVHGGFLTNGGLSSGYSHLHHKVPNAVNGIVNGSLNGGLYSGHSNSLTRTHVDFEHPHHLVNGGGMYTAVPQIDPLECVNCRNCRNNNRCFTKTNSTFSSSPPPVVPVVAPYPQDGLEMKPLSHVKVPVCLTSAVPDCGQLPEESVKDNVEPVPTQRTCCQDIVNDVSSDGSEDPAEFSRGQEGMINLRIPDHLQLAKSCVWEGDSCAHSETEINIVSWNALILPPVPEGCAEKTMWSPPGIPLDSPTEVLQQPRET | did not proliferate dermal papilla cells or rather inhibited proliferation thereof | inhibiting cell proliferation |
| CX3CL1: protein expressed by a cell adhesion gene present in dermal papilla cells (protein, UniProt P78423 25-397, looked up) Fractalkine: QHHGVTKCNITCSKMTSKIPVALLIHYQQNQASCGKRAIILETRQHRLFCADPKEQWVKDAMQHLDRQAAALTRNGGTFEKQIGEVKPRTTPAAGGMDESVVLEPEATGESSSLEPTPSSQEAQRALGTSPELPTGVTGSSGTRLPPTPKAQDGGPVGTELFRVPPVSTAATWQSSAPHQPGPSLWAEAKTSEAPSTQDPSTQASTASSPAPEENAPSEGQRVWGQGQSPRPENSLEREEMGPVPAHTDAFQDWGPGSMAHVSVVPVSSEGTPSREPVASGSWTPKAEEPIHATMDPQRLGVLITPVPDAQAATRRQAVGLLAFLGLLFCLGVAMFTYQSLQGCPRKMAGEMAEGLRYIPRSCGSNSYVLVPV | did not proliferate dermal papilla cells or rather inhibited proliferation thereof | inhibiting cell proliferation |

From patent publication US20220202899A1, “COMPOSITION FOR PREVENTION OR TREATMENT OF HAIR LOSS INCLUDING HAPLN1” (HAPLNSCIENCE INC., priority 2019, published 2022)
